Reference: US20040063148A1

Columns and labels:
[1] = tested on: T1, Gαt-rod peptide
T1 sequence: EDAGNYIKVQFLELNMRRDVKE

[2] = target: Bovine brain calmodulin (UniProt P62157)

PDE1A7 of bovine taste tissue (PDE of anion exchange fractions 6-7)
PDE activity of fraction 6 (1 µM cGMP as substrate), 100 µM peptide [1]: The PDE activities of both fractions 6 and 11 are stimulated by the presence of the Gαt-rod peptide

PDE1A1 of bovine taste tissue (PDE of anion exchange fraction 11)
PDE activity of fraction 11 (1 µM cGMP as substrate), 100 µM peptide [1]: The PDE activities of both fractions 6 and 11 are stimulated by the presence of the Gαt-rod peptide

PDE4 of bovine taste tissue (anion exchange fractions 19-23)
cAMP hydrolyzing activity of fractions 19-23, 100 µM peptide [1]: The cAMP hydrolyzing activity of this forth peak is neither Ca^2+/CaM nor Gαt-rod peptide dependent
cAMP hydrolyzing activity of fractions 19-23, 1 mM CaCl2 and 4 µg/ml CaM [2]: The cAMP hydrolyzing activity of this forth peak is neither Ca^2+/CaM nor Gαt-rod peptide dependent
